The target in assay [1] is endogenous PKM2 (A549 cells) (human (endogenous in A549)) (UniProt P14618). The assay is described as follows: cross-linking; DSS 250 μM added to collected cells in PBS pH 8.0, 30 min at 37 °C, quenched with 10 mM Tris-HCl pH 7.5; lysis and Western blot of PKM2; 4T1 cells (control or Islr-deleted) and A549 cells (with or without stable ISLR, H2O2 at indicated dose for 30 min). A general note: Immunoblotting shows a protein as a band on a membrane.

Assay [2] concerns the target endogenous Pkm2 (4T1 cells) (mouse (endogenous in 4T1)) (UniProt P52480). Described as above.

Where “and” joins values, the source holds several entries; their conditions need not be identical. Equal values may be shown once.

endogenous Pkm2 (4T1 cells), P52480 1-531 (enzyme; other documents disagree on this pair), sequence (P52480 whole entry): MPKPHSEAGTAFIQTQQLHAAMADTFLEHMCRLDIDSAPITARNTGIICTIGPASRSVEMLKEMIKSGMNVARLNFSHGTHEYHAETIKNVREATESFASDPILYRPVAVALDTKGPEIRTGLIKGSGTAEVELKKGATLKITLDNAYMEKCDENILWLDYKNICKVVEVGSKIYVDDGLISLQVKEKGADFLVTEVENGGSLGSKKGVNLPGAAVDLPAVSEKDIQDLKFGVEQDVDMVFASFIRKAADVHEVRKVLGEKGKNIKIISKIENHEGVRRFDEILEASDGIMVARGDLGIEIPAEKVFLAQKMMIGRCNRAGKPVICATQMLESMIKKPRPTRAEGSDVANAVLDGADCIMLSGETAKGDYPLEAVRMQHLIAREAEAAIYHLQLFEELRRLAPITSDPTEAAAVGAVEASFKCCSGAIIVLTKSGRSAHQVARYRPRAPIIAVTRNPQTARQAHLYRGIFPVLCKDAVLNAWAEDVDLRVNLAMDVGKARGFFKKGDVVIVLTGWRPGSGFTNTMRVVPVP
endogenous PKM2 (A549 cells), P14618 1-531 (enzyme; other documents disagree on this pair), sequence (P14618 whole entry): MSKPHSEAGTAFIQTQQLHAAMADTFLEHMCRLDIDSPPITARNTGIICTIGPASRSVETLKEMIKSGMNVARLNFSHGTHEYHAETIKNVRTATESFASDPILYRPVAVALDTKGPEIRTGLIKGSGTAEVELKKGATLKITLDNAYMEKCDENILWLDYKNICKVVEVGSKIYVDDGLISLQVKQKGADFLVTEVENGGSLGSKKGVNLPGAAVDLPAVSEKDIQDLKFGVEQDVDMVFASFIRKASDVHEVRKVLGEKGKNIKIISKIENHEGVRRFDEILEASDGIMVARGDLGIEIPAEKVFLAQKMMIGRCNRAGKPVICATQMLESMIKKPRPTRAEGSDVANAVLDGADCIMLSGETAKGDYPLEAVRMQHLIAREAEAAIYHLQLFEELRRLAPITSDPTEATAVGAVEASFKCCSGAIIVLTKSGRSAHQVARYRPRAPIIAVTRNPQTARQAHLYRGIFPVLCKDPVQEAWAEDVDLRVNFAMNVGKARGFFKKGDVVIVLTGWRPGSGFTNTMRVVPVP

Usually stoichiometry N stands for a count of units in the complex or per binding partner. “endogenous PKM2 (A549 cells), P14618 1-531 (enzyme; other documents disagree on this pair)” yielded a stoichiometry N in assay [1] of 2. Consider “endogenous Pkm2 (4T1 cells), P52480 1-531 (enzyme; other documents disagree on this pair)”, for which the stoichiometry N in assay [2] is 2 and 4.

The values are drawn from publication PMC11119796.
